B1: HDAC6 (parent)
chain: QEGLLDRCVSFQARFAEKEELMLV
B2: RIPK4 (parent)
chain: RERMELLEEAKKMEMAKFRYILPV

Variants of: B1
Test: protein stability index of a GFP-peptide fusion (GPS, HEK-293T) (PSI 1-6); higher = more stable
Conditions: c terminus: a fixed tail appended
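Also: lentivirally expressed fusions sorted by FACS into six bins by GFP to DsRed ratio, PSI derived from sequencing read proportions per bin multiplied by bin number.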

Protein stability index: each site, then its substitutions
R7: I 2.91
V24: G 3.62 | E 4.18
L21: A 4.12 | I 1.59 | S 4.16 | W 2.03 | P 3.29
C8: Y 4.19 | R 1.98 | I 1.67 | D 1.77 | T 2.27
L4: F 2.47 | G 1.43
E20: I 1.18 | Q 1.86 | A 2.37 | W 2.02 | G 1.74
M22: D 4.03 | N 3.84
F11: H 2.37
A16: H 1.41
E19: P 2.18 | G 2.6 | Y 1.53 | N 1.6
D6: L 1.9
S10: Y 2.56 | L 1.89 | R 2.37 | G 1.82 | C 1.77
Q12: I 2.57
Q1: A 1.94 | K 1.39 | W 1.47
L5: S 1.9 | T 1.87 | N 2.36
R14: M 1.66 | H 2.27 | E 2.57 | Q 1.71 | D 2.54
V9: M 2.57 | G 1.9
E2: Q 1.21 | W 1.57 | F 1.77
F15: V 2.49
K18: R 1.45 | W 2.1
L23: S 3.25 | Q 2.32 | E 3.49 | F 1.96
A13: F 2.2 | Y 1.76

Variants of: B2
Test: as above
Conditions: c terminus: a fixed tail appended

Protein stability index, by site and new letter:
A10: Q 3.79 | T 2.81 | H 2.94 | I 2.82 | W 3.58 | N 3.85 | C 4.69 | M 3.32 | D 3.99 | F 3.48 | P 3.28 | V 4.15 | R 3.66 | E 3.54 | S 3.69 | K 4.38 | Y 3.93 | L 3.33
M4: W 2.81 | A 3.99 | D 4.17 | N 3.94 | Q 3.76 | C 3.69 | T 3.53 | G 5.3 | V 2.88 | H 3.21 | S 3.59 | P 3.8 | Y 2.82 | E 3.67 | K 3.74 | I 3.08
L7: D 3.43 | E 3.74 | K 3.99 | N 3.54 | C 3.94 | I 3.42 | Q 3.87 | S 3.66 | Y 2.52 | T 4.19 | P 4.01 | V 2.78 | F 3.4 | A 3.35 | M 3.48 | W 2.43
A16: C 2.54 | G 3.31 | E 2.9 | Q 3.62 | V 3.03 | Y 3.32 | T 2.85 | W 2.58 | N 4.29 | I 3.02 | F 2.29 | K 3.8 | P 3.49 | H 4.27
M13: N 3.8 | S 3.51 | Q 3.31 | A 3.1 | I 3.59 | F 3.01 | Y 2.92 | K 3.84 | P 2.34 | H 3.13 | V 2.85 | W 3.14 | G 3.56 | E 3.19 | T 3.06 | L 3.37
L6: K 3.88 | D 4.56 | C 3.05 | A 3.19 | W 3 | Y 3.83 | Q 3.08 | R 3.56 | G 3.54 | T 3.49 | M 3.77 | V 2.9 | N 3.66 | S 3.19 | I 3.98 | H 3.87
E14: M 2.89 | V 1.71 | L 2.44 | G 2.44 | P 3.29 | W 2.92 | K 2.21 | F 1.86 | Y 2.03 | I 2.16 | D 3.8 | N 2.79 | A 2.78 | S 2.86 | T 2.65 | R 2.06 | C 3.63 | Q 3.12
E2: N 3.59 | Y 2.74 | R 2.67 | W 1.47 | G 2.57 | P 3.75 | Q 2.31 | F 2.27 | D 3.21 | C 1.34 | I 1.93 | L 2.57 | V 2.81 | H 2.75 | S 2.77 | M 2.37 | A 2.42
K17: A 1.87 | C 2.01
R1: L 4.16 | W 2.5 | P 3.85 | N 4.13 | S 3.53 | M 3.98 | V 3.83 | H 4.5 | F 3.47 | A 3.83 | Q 3.9 | E 3.99 | Y 2.9 | C 2.88 | I 3.29 | G 3.79 | T 3.13 | D 4.22 | K 4.16
R3: I 2.39 | C 3.26 | T 3.68 | M 2.7 | Q 4.19 | S 3.85 | E 4.38 | P 3.84 | L 2.3 | N 3.18 | H 3.89 | V 2.42 | D 3.63 | W 1.73 | F 2.58 | G 2.58 | Y 3.25 | A 3.48
K12: Q 3.41 | N 3.23 | Y 2.42 | V 2.82 | D 3.3 | F 2.5 | S 2.75 | M 2.78 | C 3.35 | I 2.37 | L 2.21 | H 3.36 | T 2.9 | P 3.5 | A 3.43 | E 3.46 | W 2.65 | G 2.36
E5: P 3.01 | T 2.34 | K 2.36 | S 2.11 | G 2.6 | F 2.81 | V 2.29 | R 2.97 | W 2.23 | H 1.99 | N 2.87 | A 2.9 | L 2.75 | I 2.26 | C 2.63 | Y 2.29 | M 3.12
E8: D 2.86 | Y 2.62 | K 3.42 | S 3.06 | P 3.14 | G 2.27 | F 2.68 | V 1.69 | T 3.16 | N 2.04 | L 2.11 | I 2.11 | H 2.67 | M 2.69 | W 3.05 | C 3.01 | R 3.5 | Q 2.03
K11: H 3.05 | R 2.81 | V 2.32 | P 2.91 | A 3.07 | Q 3.17 | W 2.51 | N 3.08 | D 4.09 | G 3.04 | M 2.45 | S 3.37 | Y 1.08 | F 2.67 | E 3.97 | I 2.39 | C 2.24 | L 4.66
E9: H 2.8 | Q 3.31 | W 2.16 | N 3.44 | P 3.42 | D 3.91 | G 3.79 | T 2.93 | V 2.43 | Y 2.49 | F 2.37 | A 2.85 | M 2.78 | I 2.57 | L 1.94 | C 2.12 | K 3.65 | S 3.08 | R 2.4
M15: H 4.28 | S 4.59 | P 4.15 | Y 3.41 | W 2 | I 4.15 | G 3.59 | L 3.48 | R 3.97 | Q 3.34 | V 3.02 | E 4.61 | F 3.91 | K 3.93
